Experimental data published in the FLAb antibody collection (doi:10.1101/2023.12.08.570889).

Target: TNFRSF9, Q07011
Assay: Kd (SPR)

Binder	Kd [µM]
unnamed (protein) chain 1: EVQLVQSGAEVKKPGESLRISCKGSGYSFSTYWISWVRQMPGKGLEWMGKIYPGDSYTNYSPSFQGQVTISADKSISTAYLQWSSLKASDTAMYYCTRGTGLFDYWGQGTLVTVSS chain 2: SYELTQPPSVSVSPGQTASITCSGDNIGDQYAHWYQQKPGQSPVLVIYQDKNRPSGIPERFSGSNSGNTATLTISGTQAMDEADYYCATYTGFGSLAVFGGGTKLTVL	0.142
unnamed (protein) chain 1: EVQLVQSGAEVKKPGESLRISCKGSGYSFSTYWISWVRQMPGKGLEWMGKIYPGDSYTNYSPSFQGQVTISADKSISTAYLQWSSLKASDTAMYYCSRGYGIFDYWGQGTLVTVSS chain 2: SYELTQPPSVSVSPGQTASITCSGDNIGDQYAHWYQQKPGQSPVLVIYQDKNRPSGIPERFSGSNSGNTATLTISGTQAMDEADYYCATYTGFGSLAVFGGGTKLTVL	0.0397
unnamed (protein) chain 1: EVQLVQSGAEVKKPGESLRISCKGSGYTFSSYWISWVRQMPGKGLEWMGKIYPGDSYTNYSPSFQGQVTISADKSISTAYLQWSSLKASDTAMYYCTRGYGLFDYWGQGTLVTVSS chain 2: SYELTQPPSVSVSPGQTASITCSGDNIGDQYAHWYQQKPGQSPVLVIYQDKNRPSGIPERFSGSNSGNTATLTISGTQAMDEADYYCATYTGFGSLAVFGGGTKLTVL	0.109
unnamed (protein) chain 1: EVQLVQSGAEVKKPGESLRISCKGSGYTFSSYWISWVRQMPGKGLEWMGKIYPGDSYTNYSPSFQGQVTISADKSISTAYLQWSSLKASDTAMYYCTRGYGIFDYWGQGTLVTVSS chain 2: SYELTQPPSVSVSPGQTASITCSGDNIGDQYAHWYQQKPGQSPVLVIYQDKNRPSGIPERFSGSNSGNTATLTISGTQAMDEADYYCATYTGFGSLAVFGGGTKLTVL	0.0954
unnamed (protein) chain 1: EVQLVQSGAEVKKPGESLRISCKGSGYSFSTYWISWVRQMPGKGLEWMGKIYPGDSYTNYSPSFQGQVTISADKSISTAYLQWSSLKASDTAMYYCARGHGVFDYWGQGTLVTVSS chain 2: SYELTQPPSVSVSPGQTASITCSGDNIGDQYAHWYQQKPGQSPVLVIYQDKNRPSGIPERFSGSNSGNTATLTISGTQAMDEADYYCATYTGFGSLAVFGGGTKLTVL	0.315
unnamed (protein) chain 1: EVQLVQSGAEVKKPGESLRISCKGSGYSFSTYWISWVRQMPGKGLEWMGKIYPGDSYTNYSPSFQGQVTISADKSISTAYLQWSSLKASDTAMYYCARGWGLFDYWGQGTLVTVSS chain 2: SYELTQPPSVSVSPGQTASITCSGDNIGDQYAHWYQQKPGQSPVLVIYQDKNRPSGIPERFSGSNSGNTATLTISGTQAMDEADYYCATYTGFGSLAVFGGGTKLTVL	0.0603

Further binders by falling Kd, results first:

Kd [µM]	Binder
0.092	unnamed (protein) chain 1: EVQLVQSGAEVKKPGESLRISCKGSGYSFSTYWISWVRQMPGKGLEWMGKIYPGDSYTNYSPSFQGQVTISADKSISTAYLQWSSLKASDTAMYYCTRGTGIFDYWGQGTLVTVSS chain 2: SYELTQPPSVSVSPGQTASITCSGDNIGDQYAHWYQQKPGQSPVLVIYQDKNRPSGIPERFSGSNSGNTATLTISGTQAMDEADYYCATYTGFGSLAVFGGGTKLTVL
0.0861	unnamed (protein) chain 1: EVQLVQSGAEVKKPGESLRISCKGSGYTFSSYWISWVRQMPGKGLEWMGKIYPGDSYTNYSPSFQGQVTISADKSISTAYLQWSSLKASDTAMYYCARGYGLFDYWGQGTLVTVSS chain 2: SYELTQPPSVSVSPGQTASITCSGDNIGDQYAHWYQQKPGQSPVLVIYQDKNRPSGIPERFSGSNSGNTATLTISGTQAMDEADYYCATYTGFGSLAVFGGGTKLTVL
0.045	unnamed (protein) chain 1: EVQLVQSGAEVKKPGESLRISCKGSGYSFSTYWISWVRQMPGKGLEWMGKIYPGDSYTNYSPSFQGQVTISADKSISTAYLQWSSLKASDTAMYYCARGWGIFDYWGQGTLVTVSS chain 2: SYELTQPPSVSVSPGQTASITCSGDNIGDQYAHWYQQKPGQSPVLVIYQDKNRPSGIPERFSGSNSGNTATLTISGTQAMDEADYYCATYTGFGSLAVFGGGTKLTVL
0.0334	unnamed (protein) chain 1: EVQLVQSGAEVKKPGESLRISCKGSGYSFSTYWISWVRQMPGKGLEWMGKIYPGDSYTNYSPSFQGQVTISADKSISTAYLQWSSLKASDTAMYYCARGIGVFDYWGQGTLVTVSS chain 2: SYELTQPPSVSVSPGQTASITCSGDNIGDQYAHWYQQKPGQSPVLVIYQDKNRPSGIPERFSGSNSGNTATLTISGTQAMDEADYYCATYTGFGSLAVFGGGTKLTVL
